Source: FireProtDB (doi:10.1529/biophysj.104.051052)

Conditions: Canavalia ensiformis, pH 7, Fluorescence, HEPES 25 mM, CaCl2 15 mM, reversible: yes, whole UniProt chain shown; for denaturant m value: GdnHCl

B1: Concanavalin-A wild type, P02866 (protein)
chain: MAISKKSSLFLPIFTFITMFLMVVNKVSSSTHETNALHFMFNQFSKDQKDLILQGDATTGTDGNLELTRVSSNGSPQGSSVGRALFYAPVHIWESSAVVASFEATFTFLIKSPDSHPADGIAFFISNIDSSIPSGSTGRLLGLFPDANVIRNSTTIDFNAAYNADTIVAVELDTYPNTDIGDPSYPHIGIDIKSVRSKKTAKWNMQNGKVGTAHIIYNSVDKRLSAVVSYPNADSATVSYDVDLDNVLPEWVRVGLSASTGLYKETNTILSWSFTSKLKSNEIPDIATVV
- denaturant m value (7 °C): 1.3 kcal/mol/M
- denaturant m value (12 °C): 1.6 kcal/mol/M
- denaturant m value (18 °C): 1.8 kcal/mol/M
- denaturant m value (27 °C): 2.1 kcal/mol/M
- denaturant m value (30 °C): 2.3 kcal/mol/M
- denaturant m value (39 °C): 2.2 kcal/mol/M
- Tm (Thermal): 98.5 °C
- heat capacity change of unfolding (Thermal): 4.2 kcal/mol/K
- unfolding enthalpy (van 't Hoff) (Thermal): 179 kcal/mol
